Measured values: PMC6497721, “DNA methylation repels targeting of Arabidopsis REF6”

Legend:
REF6 ZnF1-4 = target: T1, REF6 ZnF1-4 (Arabidopsis thaliana, UniProt Q9STM3 1239-1360); assay: ITC; 20 uM ZnCl2; ITC: 20 mM Tris-HCl pH 7.5, 150 mM NaCl, 20 uM ZnCl2, 25 C; EMSA: 25 mM Tris-HCl pH 8.0, 100 mM NaCl, 2.5 mM MgCl2, 0.1% CA-630, 10% glycerol, 1 uM ZnSO4, 1 mM; settings: protein: recombinant; tags: GST removed by PreScission; blunt
T1 sequence: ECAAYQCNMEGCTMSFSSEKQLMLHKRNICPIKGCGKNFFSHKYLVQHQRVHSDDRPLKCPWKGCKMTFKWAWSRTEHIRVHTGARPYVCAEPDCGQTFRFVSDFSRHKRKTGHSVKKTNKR

GST-REF6C (ZnF1-4) = target: T2, GST-REF6C (ZnF1-4) (Arabidopsis thaliana, UniProt Q9STM3 1239-1360); assay: EMSA; 1 uM ZnSO4; ITC: 20 mM Tris-HCl pH 7.5, 150 mM NaCl, 20 uM ZnCl2, 25 C; EMSA: 25 mM Tris-HCl pH 8.0, 100 mM NaCl, 2.5 mM MgCl2, 0.1% CA-630, 10% glycerol, 1 uM ZnSO4, 1 mM; settings: protein: recombinant; tags: N-terminal GST (pGEX-6P-1); label: 5'-32P; blunt
T2 sequence: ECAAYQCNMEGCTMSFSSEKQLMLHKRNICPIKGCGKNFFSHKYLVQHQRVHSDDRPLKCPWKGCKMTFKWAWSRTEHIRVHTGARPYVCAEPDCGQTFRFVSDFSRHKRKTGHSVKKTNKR

Binder	Kd (REF6 ZnF1-4) [nM]	binding result (GST-REF6C (ZnF1-4))
NAC004P_5mC3 (dsDNA, 5mC at top strand position 5) DNA 1: TTCTCTGTTTTG DNA 2: CAAAACAGAGAA	110 ± 3.8	
NAC004P 12-mer (dsDNA) DNA 1: TTCTCTGTTTTG DNA 2: CAAAACAGAGAA	73.5 ± 7	
NAC004P_5mC1 (dsDNA, 5mC at top strand position 3) DNA 1: TTCTCTGTTTTG DNA 2: CAAAACAGAGAA	65.7 ± 4.9	
NAC004 50-bp probe (dsDNA) DNA 1: GGGAGAATCTCAAACTTTCTCTGTTTTGTCTTTAGAAACTTTGAAATATC DNA 2: GATATTTCAAAGTTTCTAAAGACAAAACAGAGAAAGTTTGAGATTCTCCC		binds
